This assay addresses full-length GST-PRMT5 (UniProt O14744 1-637). The experiment in a line: pull-down.

full-length GST-PRMT5, sequence (O14744 whole entry): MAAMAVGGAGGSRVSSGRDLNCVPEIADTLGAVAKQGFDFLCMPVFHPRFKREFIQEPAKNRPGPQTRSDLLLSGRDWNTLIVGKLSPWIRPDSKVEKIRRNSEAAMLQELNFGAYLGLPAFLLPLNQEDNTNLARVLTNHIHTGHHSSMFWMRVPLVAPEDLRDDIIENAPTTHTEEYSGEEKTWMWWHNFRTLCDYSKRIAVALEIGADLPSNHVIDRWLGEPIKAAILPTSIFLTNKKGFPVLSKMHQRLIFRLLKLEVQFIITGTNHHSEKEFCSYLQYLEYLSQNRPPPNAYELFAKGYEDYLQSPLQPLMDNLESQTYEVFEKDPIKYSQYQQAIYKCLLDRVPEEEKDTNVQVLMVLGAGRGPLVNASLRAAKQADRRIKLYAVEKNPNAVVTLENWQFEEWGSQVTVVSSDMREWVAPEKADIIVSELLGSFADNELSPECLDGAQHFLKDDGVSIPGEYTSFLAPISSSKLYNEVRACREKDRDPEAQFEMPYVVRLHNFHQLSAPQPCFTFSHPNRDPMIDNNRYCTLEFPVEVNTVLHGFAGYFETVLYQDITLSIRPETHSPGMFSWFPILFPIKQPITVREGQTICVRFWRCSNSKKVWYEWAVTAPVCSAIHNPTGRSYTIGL

B1: full-length His-CAPG (natural protein)
chain: MYTAIPQSGSPFPGSVQDPGLHVWRVEKLKPVPVAQENQGVFFSGDSYLVLHNGPEEVSHLHLWIGQQSSRDEQGACAVLAVHLNTLLGERPVQHREVQGNESDLFMSYFPRGLKYQEGGVESAFHKTSTGAPAAIKKLYQVKGKKNIRATERALNWDSFNTGDCFILDLGQNIFAWCGGKSNILERNKARDLALAIRDSERQGKAQVEIVTDGEEPAEMIQVLGPKPALKEGNPEEDLTADKANAQAAALYKVSDATGQMNLTKVADSSPFALELLISDDCFVLDNGLCGKIYIWKGRKANEKERQAALQVAEGFISRMQYAPNTQVEILPQGHESPIFKQFFKDWK
Take B1: the binding result is recorded as “binds”.
